The supplement of paper PMC9732359
± gives the uncertainty stated by the source.

Test: protein stability index of a GFP-peptide fusion (yeast GPS) (PSI 1-4); higher = more stable; sorted into four equal gates, so the index is relative within each strain
In short: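 The protein stability index combines read frequencies across sorting gates, each weighted by its gate number and then summed. To obtain those frequencies, a pooled yeast library of GFP fusions to tiled 17-residue yeast protein peptides, on a plasmid also expressing Cherry, was grown to mid-log phase in leucine-free medium. The cells were sorted into four equal gates by GFP/Cherry ratio before plasmid amplification by PCR and Illumina sequencing.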

Row | Sequence | protein stability index (doa10∆) | protein stability index (pdr5∆) | protein stability index (san1∆) | protein stability index (ubr1∆)
1 | STVAKFLARVIKEKFDE [IRR1] | 2.86 ± 0.1 | 2.33 ± 0.082 | 3.36 ± 0.22 | 2.16 ± 0.09
2 | STYLPKLISAFDDLEVE [RRP42] | 2.63 ± 0.051 | 2.75 ± 0.042 | 2.58 ± 0.05 | 2.74 ± 0.032
3 | SVILSVISMFVLPIFTT [YML031W/NDC1] | 1.29 ± 0.045 | 1.5 ± 0.059 | 1.3 ± 0.092 | 1.93 ± 0.043
4 | SVINVSAQRDRRYRKRV [RPS17A] | 2.34 ± 0.06 | 2.06 ± 0.063 | 1.71 ± 0.1 | 2.06 ± 0.08
5 | SVISGNLSLYEATAASH [CSN12] | 2.28 ± 0.063 | 2.87 ± 0.068 | 2.8 ± 0.069 | 2.7 ± 0.057
6 | SVKGKVVIDAFRLIDTG [RPN11] | 1.83 ± 0.12 | 2.38 ± 0.099 | 1.92 ± 0.15 | 1.79 ± 0.061
7 | SVLDEQEQYQTNTFEGS [SNU114] | 3.12 ± 0.14 | 3.22 ± 0.08 | 3.26 ± 0.11 | 3.31 ± 0.071
8 | SVPEGTIVSNVEEKPGD [RPL2A] | 3.23 ± 0.1 | 3.02 ± 0.082 | 3.39 ± 0.059 | 3.39 ± 0.11
9 | SVSFKVFLLLQAYFSRL [BRR2] | 1.39 ± 0.044 | 1.47 ± 0.063 | 1.22 ± 0.088 | 1.42 ± 0.051
10 | SVSGSPRPSYSSRPNVN [YMR129W/POM152] | 2.8 ± 0.091 | 2.72 ± 0.085 | 2.45 ± 0.066 | 2.77 ± 0.081
11 | SVVAKQLLNGQKIVVVR [RPL16A] | 1.25 ± 0.049 | 1.36 ± 0.053 | 1.62 ± 0.11 | 1.24 ± 0.057
12 | SVVRVLVHTQIRKTPLA [RPL3] | 1.19 ± 0.076 | 1.35 ± 0.096 | 1.11 ± 0.14 | 1.54 ± 0.046
13 | SWVQPRIISGDQITKMK [RPN9] | 3.76 ± 0.26 | 3.27 ± 0.12 | 2.94 ± 0.14 | 3.56 ± 0.2
14 | SYAGKQVVGPFHTSFSA [SMC4] | 2.7 ± 0.078 | 3.33 ± 0.11 | 3.08 ± 0.056 | 3.13 ± 0.049
15 | SYDCTGVNELAPIPKGR [POP1] | 2.84 ± 0.061 | 2.79 ± 0.057 | 3.01 ± 0.055 | 3 ± 0.042
16 | SYKMNSSAADITMESVH [PRP8] | 3.32 ± 0.11 | 3.19 ± 0.08 | 3.21 ± 0.095 | 3.17 ± 0.067
17 | SYLSNSLDTSASTINGA [YML103C/NUP188] | 2.31 ± 0.058 | 1.78 ± 0.063 | 1.76 ± 0.065 | 1.84 ± 0.06
18 | SYNLEYIESKFCPGEIV [YMR129W/POM152] | 3.15 ± 0.13 | 3.21 ± 0.19 | 3.12 ± 0.14 | 3.21 ± 0.096
19 | SYNNTGISDDENDEEDI [RRP4] | 2.85 ± 0.11 | 3.27 ± 0.12 | 2.84 ± 0.086 | 2.96 ± 0.099
20 | SYVEPVLVASAKGLQTV [RPL31A] | 2.2 ± 0.059 | 2.33 ± 0.08 | 2.23 ± 0.065 | 2.22 ± 0.082

Row | Sequence | protein stability index (doa10∆) | protein stability index (pdr5∆) | protein stability index (san1∆) | protein stability index (ubr1∆)
21 | TAAEKKERLTKEAAAVA [RPL8A] | 3.25 ± 0.12 | 2.79 ± 0.16 | 3.13 ± 0.096 | 2.89 ± 0.15
22 | TAAFTAMICEAKGLIEN [YJR042W/NUP85] | 2.62 ± 0.067 | 2.86 ± 0.06 | 2.72 ± 0.068 | 2.94 ± 0.052
23 | TADAEILINTARIHAQN [PRE9] | 2.92 ± 0.094 | 2.85 ± 0.073 | 2.83 ± 0.099 | 2.96 ± 0.072
24 | TADKIRIHAKNFEAALF [GAL11] | 2.13 ± 0.068 | 2.05 ± 0.065 | 1.51 ± 0.11 | 2.29 ± 0.055
25 | TAEERVGRRAANLRVLN [RPL15A] | 2.83 ± 0.12 | 3.28 ± 0.14 | 2.75 ± 0.14 | 2.92 ± 0.11
26 | TAETNNKVHETSSKSSS [YDL088C/ASM4] | 2.86 ± 0.039 | 2.96 ± 0.045 | 2.84 ± 0.039 | 2.89 ± 0.032
27 | TAFQTQRTAQDRVQQDS [YML031W/NDC1] | 2.94 ± 0.086 | 2.62 ± 0.075 | 3.26 ± 0.076 | 2.35 ± 0.079
28 | TAKKTNRSAYDSKNTPN [YDL088C/ASM4] | 2.68 ± 0.089 | 2.78 ± 0.065 | 2.94 ± 0.052 | 2.9 ± 0.084
29 | TALEHKVVNGNSADAAY [FAS2] | 2.84 ± 0.08 | 3.09 ± 0.088 | 3.05 ± 0.063 | 3.13 ± 0.06
30 | TANDQYSSILGNSFNKS [YCG1] | 3.13 ± 0.069 | 3.18 ± 0.067 | 3.31 ± 0.038 | 3.46 ± 0.058
31 | TANDRQINNVHLIPNEI [RPN4] | 2.88 ± 0.063 | 3.02 ± 0.062 | 2.92 ± 0.052 | 2.94 ± 0.055
32 | TANTGTIGKRRTTTNTT [TAF14] | 3.18 ± 0.06 | 3.29 ± 0.046 | 3.21 ± 0.045 | 3.19 ± 0.062
33 | TCRKHTQHKVTQYKAGK [RPL42A] | 3.09 ± 0.14 | 2.85 ± 0.12 | 2.62 ± 0.07 | 2.91 ± 0.088
34 | TDEALFENVKLLAEYDN [MED4] | 3.02 ± 0.11 | 3.17 ± 0.1 | 3.08 ± 0.088 | 2.87 ± 0.073
35 | TDENTPSADGADKKDDS [ITC1] | 3.04 ± 0.11 | 3.11 ± 0.062 | 3.36 ± 0.064 | 2.98 ± 0.061
36 | TDLGKDIPFFPSSEKPN [SSN2] | 2.7 ± 0.059 | 2.9 ± 0.077 | 2.57 ± 0.11 | 3.07 ± 0.037
37 | TDPKELYNNAHVYARDL [RPC40] | 3.51 ± 0.23 | 2.94 ± 0.11 | 2.93 ± 0.13 | –
38 | TDSDFAKYHAKLNKKLQ [SRP68] | 2.97 ± 0.059 | 3.12 ± 0.055 | 2.84 ± 0.043 | 3 ± 0.05
39 | TDVKLTLPQPRLNKLNS [SMD1] | 2.73 ± 0.066 | 2.79 ± 0.059 | 2.1 ± 0.071 | 2.73 ± 0.059
